# Measured values reported in the supplement of paper PMC9170038.
# Test system: MS2 coat protein
# Assay: apparent KD of MS2 coat protein; designed switch direction (-1 OFF switch, 1 ON switch): -1; higher = weaker reporter binding
# Procedure, shortened: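 Apparent KD, taken as the median over clusters for each design, was obtained by curve-fitting normalised cluster fluorescence. Designed RNA switches had been transcribed on Illumina chips by stalled E. coli RNA polymerase and titrated with SNAP-549-labelled MS2 coat protein, doubling from 0.7 or 1.5 nM to 3 µM.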
# [1] = Eterna round: R95, input ligand: FMN 200 uM
# [2] = Eterna round: R95, input ligand: microRNA oligo, concentration not stated
# [3] = Eterna round: R95, input ligand: none
# [4] = input ligand: microRNA oligo, concentration not stated
Sequence,apparent KD of MS2 coat protein (input ligand: FMN 200 uM),apparent KD of MS2 coat protein (input ligand: none),apparent KD of MS2 coat protein [1],apparent KD of MS2 coat protein [2],apparent KD of MS2 coat protein [3],apparent KD of MS2 coat protein [4]
"CUGUACUGAGGAUAUACAUGAGGAUCACCCAUGUUCUUCGGCUAGGAAACUAGCAAAGGUAGAAGGCAGUACAG [Mat - Exclusion 3 - Eli Mod - D68] (Eterna round: R97, puzzle: Exclusion 3)",234 nM,15.1 nM,,,,
"AUUAUGUUAGGAUAUGCUUAUGGUGGAUAGUCCAGUAUGGUGUAGAAGGGACAUGAGGAUCACCCAUGUGCUGA [EX4 #33] (Eterna round: R97, puzzle: Exclusion 4)",35.2 nM,34 nM,,,,
GUAGAGACAGGAUAUACAUGAGGAUCACCCAUGUAAGGAGGAAGAGAGAGGAGAAGGAGUAGAAGGGUCAGAGG [JR_Exclu3_Sub029] (puzzle: Exclusion 3),,,29.2 nM,35.3 nM,35.2 nM,
GAUCAACAUGAGGAUCACCCAUGUGAGGAUAUGAUACUAUGUACUUCGGUACAUAGUAUCAGAAGGCAUGUAAA [Ex1-3: 78] (puzzle: Exclusion 1),,,,54.5 nM,,
"AUAGAUAUAGGAUAUGAGGUAUAGUACAUGAGGAUCACCCAUGUUGAUCGCAUGAACGAUUUAGAAGGAUACCUAA [Eternabot (L2) Solution 83] (Eterna round: R97, puzzle: Exclusion 5)",643 nM,1310 nM,,,,
"GCCUUAUCUGUCAGGAUAUACAAUAAAAUAAUUAAGUAGAAGGGACAUGAGGAUCACCCAUGUACAUUACAUUG [alecazam26] (Eterna round: R97, puzzle: Brourd's mod of Exclusion 4)",67.4 nM,17.9 nM,,,,
"AGGCCACAUGAGGAUCACCCAUGUUAGGAUAUCGAGAGUACAACGAGCCGUCACUUCCCGAGAAGGGACAAGGG [Eternabot (Original) Solution 22] (Eterna round: R97, puzzle: Exclusion 1)",65.3 nM,54.5 nM,,,,
"UUAAAUCAUGUAGGAUAUGCGUGGCGAAGCUAUGCAGAAGGACAUGAGGAUCACCCAUGUGCUUCCGUCUGCGUACAGACGGUA [JL ENG1 1.14] (Eterna round: R96, puzzle: Exclusion NG 1)",258 nM,91.2 nM,,,,79.2 nM
"AACUGUGAGGCAGGAUAUGAAGCAUGGGCCGCGUGAUAAUACAUGAGGAUCACCCAUGUAGGGAUUCAGAAGGGCCCAGAGCAC [Atusveer] (Eterna round: R96, puzzle: Exclusion NG 2)",20.4 nM,18.2 nM,,,,11.5 nM
AAGAAACAUGAGGAUCACCCAUGUGAGGAUAUGAAAAAGAAAAGAAAAGAAAGAAGAAUCAGAAGGCACAAAGU [salish99-ex1_r3_089] (puzzle: Exclusion 1),,,26.5 nM,25.9 nM,32.6 nM,
UUUUAACAUGAGGAUCACCCAUGUGAGGAUAUCGAAAUUUAUAUUAAUAUUAAUAUUUCGAGAAGGCACAUUUU [JMF 25] (puzzle: Exclusion 1),,,,125 nM,,
"AGUAGUAGUAUCCGAUCCUACAUGAGGAUCACCCAUGUAGCUAGACGUGCACGCGAUGCUCGUCAGACUGCCAGAUG [salish99_TOv1_r3_049] (puzzle: Sensor v3, turn-off variant 1)",,,95.4 nM,97.8 nM,128 nM,
"GCUGGUCAAGGAUAUAUAUGACGUGCUUCGGCACGAAGGUCACAUGAGGAUCACCCAUGUAGAAGGUGACCAGC [E2/9-C1] (Eterna round: R97, puzzle: Exclusion 2)",304 nM,39.7 nM,,,,
CAGUACUGAGGAUAUACAUGAGGAUCACCCAUGUGUUCCAGCUAGGAAACUAGCAUAAGUAGAAGGCAGUACUG [salish99_ex3_r3_091x] (puzzle: Exclusion 3),,,,21.8 nM,,
"GGUGCUGGCGCGUCGGUGUUGGUGCAAUAAGCUUGUGAAACAUGAGGAUCACCCAUGUCCUCGUGGGCUCGUCUUGU [salish99_TOv2_r2_090] (puzzle: Sensor v3, turn-off variant 2)",,,480 nM,12.5 nM,434 nM,
"CGUCAACAUGAGGAUCACCCAUGUUAGGAUAUAGAGCCAGGGCACGACGCUAACCAGUCUAGAAGGGACGUGGG [Eternabot (Original) Solution 5] (Eterna round: R97, puzzle: Exclusion 1)",45.9 nM,37.1 nM,,,,
GCUUGGCGAGGAUAUACAUGAGGAUCACCCAUGUGAGAGAAAUAAGUGAGGAAGAAAAGUAGAAGGCGCUGAGG [Mat - Exclusion 3 - Mod of Salish D59] (puzzle: Exclusion 3),,,167 nM,58.9 nM,61 nM,

Sequence,apparent KD of MS2 coat protein (input ligand: FMN 200 uM),apparent KD of MS2 coat protein (input ligand: none),apparent KD of MS2 coat protein [1],apparent KD of MS2 coat protein [2],apparent KD of MS2 coat protein [3],apparent KD of MS2 coat protein [4]
"AGCUAGUGCCGAGGAUAUGAUACAUGAGGAUCACCCAUGUGUAGGGUGUAUAUAUAUCAAUAAUAUUAGAAGGCGGCGUUGGCA [JL ENG2 1.47] (Eterna round: R96, puzzle: Exclusion NG 2)",785 nM,1480 nM,,,,480 nM
"CACCGUUACACAGGAUAUGUUACAUGAGGAUCACCCAUGUAAUAAAUGAGAAUUUCGAAUGUAAUACAGAAGGGUGGAAUCGGC [Ostricism 73 - Jieux - Exclusion NG 2] (Eterna round: R96, puzzle: Exclusion NG 2)",34.7 nM,28.4 nM,,,,27.9 nM
CUGAGCUGAGGAUAUACAUGAGGAUCACCCAUGUGGGCCUGCGAGGUUACUUGCACAUGUAGAAGGCAGUUCGG [Extended Mod of JL - ex3-3.35 Brourd mod] (puzzle: Exclusion 3),,,,74.4 nM,,
"UAUAUAUAGUAAGGAUAUGUAAUUAUUUUAGAAACAGAAGGUACUGACAUGAGGAUCACCCAUGUUUUAGUGUGGGCAUGUAGA [JMF's solution 45] (Eterna round: R96, puzzle: Exclusion NG 1)",,,,,,69.9 nM
"UUUCUACAUGUAGGAUAUGCGUGGCGAAGCUAUGCAGAAGGACAUGAGGAUCACCCAUGUUUUAGCGUCUGCGUACAGAUGCGU [JL ENG1 1.49] (Eterna round: R96, puzzle: Exclusion NG 1)",60.9 nM,20.6 nM,,,,16.2 nM
"CUAAUGAUAGGAUAUACAGCGAGAGUCGACUCUGGUGCUCAACAUGAGGAUCACCCAUGUAGAAGGAUCAGACC [EX2 C.23] (Eterna round: R97, puzzle: Exclusion 2)",35.9 nM,18.6 nM,,,,
"GCUUGUGGGCAAGGAUAUCCUGCGCUGUUCUGGUUCGUGUCUGUCACAUGAGGAUCACCCAUGUGGGAGAAGGUGCCUGUGGCG [Design 66] (Eterna round: R96, puzzle: Exclusion NG 2)",22 nM,24.2 nM,,,,17.4 nM
"AGGAAACAUGAGGAUCACCCAUGUGAGGAUAUUUGAAAGAAAAGAAAAGAAAGAAGAAGAAGAAGGCACAAGAA [Merneith] (Eterna round: R96, puzzle: Exclusion 1)",,,,,,23.8 nM
"AACUGGACAGGAUAUGUACUUGAGCACUUGAGGAUCACCCAAGUCAUCAAGUACUCAGGCACAGAAGGGUUUAUGA [jl-ex5.4.61 ViennaUCT mod] (Eterna round: R97, puzzle: Exclusion 5)",142 nM,132 nM,,,,
"GCUAGAGCAGGAUAUCUAGAUCCACACAUGAGGAUCACCCAUGUAUAGUCGAAAGACUAAAGAGAAGGGCUCUAGC [Omei Ex5 E14] (Eterna round: R97, puzzle: Exclusion 5)",72.7 nM,61.8 nM,,,,
"AGUGGUAGUAUCCGAUCCUACAUGAGGAUCACCCAUGUAGCUAGACGUGCACGCGAUGCUCGUCAGACUACCAGAUG [salish99_TOv1_r3_040] (puzzle: Sensor v3, turn-off variant 1)",,,16.5 nM,14.1 nM,18.1 nM,
"GCUGGACAAGGAUAUAUAUGACGUGCUUCGGCACGAAGGUCACAUGAGGAUCACCCAUGUAGAAGGUGUCCAGC [E2/9-C2] (Eterna round: R97, puzzle: Exclusion 2)",342 nM,49.7 nM,,,,
"UGACUACAUGAGGAUCACCCAUGUCAGGAUAUGCCGUUAAAUUAACAUCAACAUACGGGUAGAAGGGACAGCGU [1st #5] (Eterna round: R97, puzzle: Exclusion 1)",27.2 nM,29.4 nM,,,,
"GAUUAUGCGAGCUUUAGGGACAUGAGGAUCACCCAUGUUCGUCUUGUUGAUCUAGGUGCACUAACAUACCUAAAUCU [JMF 33] (puzzle: Sensor v3, turn-off variant 1)",,,24.7 nM,28.7 nM,22.6 nM,
"UAACCCGCGCGAGGAUAUCACAUGAGGAUCACCCAUGUGGCACUCCGUCACCGGGCAGUCCCGAGUGAGAAGGUGCAGGCGGGA [Bireisen] (Eterna round: R96, puzzle: Exclusion NG 2)",62.8 nM,26 nM,,,,22.1 nM
"GUACGCUCAGGAUAUCAAGGGCUGUACAUGAGGAUCACCCAUGUUAUCUUGGUGUCAGCGUGAGAAGGGAGGGAAA [Xesoonesa] (Eterna round: R96, puzzle: Exclusion 5)",27.2 nM,28.6 nM,,,,20.2 nM
"UGCGGGCUUUUGAGACCUCACAUGAGGAUCACCCAUGUGCUUGUCUUGUGGGUCGGUCGGUCGUUGGCUGGCUGGCU [-29.6, -52.1 kcal, A 10%] (Eterna round: R97, puzzle: Sensor, turn-off variant 1)",18 nM,17.8 nM,,,,
